# Experimental data taken from patent publication US11325966.
# Experiments:
# Assay in all cases: cell-based or functional assay
# [1] = molecular target: HIV-1 YU2 Env N332K, on pseudovirus (HIV-1) (UniProt P35961)
# [2] = molecular target: HIV-1 envelope (Env) of pseudovirus 6240_08_TA5_4622 (HIV-1)
# [3] = molecular target: HIV-1 envelope (Env) of pseudovirus RHPA4259.7 (HIV-1)
# [4] = molecular target: HIV-1 envelope (Env) of pseudovirus 7030102001E5 (Rev-) (HIV-1)
# [5] = molecular target: HIV-1 envelope (Env) of pseudovirus ZM247v1 (Rev-) (HIV-1)
# [6] = molecular target: HIV-1 envelope (Env) of pseudovirus 3016.v5.c45 (HIV-1)
# [7] = molecular target: HIV-1 envelope (Env) of pseudovirus 235-47 (HIV-1)
# [8] = molecular target: HIV-1 envelope (Env) of pseudovirus C2101.c01 (HIV-1)
# [9] = molecular target: HIV-1 envelope (Env) of pseudovirus CNE5 (HIV-1)
# [10] = molecular target: HIV-1 envelope (Env) of pseudovirus 6952.v1.c20 (HIV-1)
# [11] = molecular target: HIV-1 envelope (Env) of pseudovirus Ce1086_B2 (HIV-1)
# [12] = molecular target: HIV-1 envelope (Env) of pseudovirus AC10.0.29 (HIV-1)
# [13] = molecular target: HIV-1 envelope (Env) of pseudovirus A07412M1.vrc12 (HIV-1)
# [14] = molecular target: HIV-1 envelope (Env) of pseudovirus 1012_11_TC21_3257 (HIV-1)
# [15] = molecular target: HIV-1 envelope (Env) of pseudovirus 6540.v4.c1 (HIV-1)
# [16] = molecular target: HIV-1 envelope (Env) of pseudovirus HIV-0013095-2.11 (HIV-1)
# [17] = molecular target: HIV-1 envelope (Env) of pseudovirus Ce703010054_2A2 (HIV-1)
# [18] = molecular target: HIV-1 envelope (Env) of pseudovirus BJOX028000.10.3 (HIV-1)
# [19] = molecular target: HIV-1 envelope (Env) of pseudovirus CNE19 (HIV-1)
# [20] = molecular target: HIV-1 envelope (Env) of pseudovirus 1394C9G1 (Rev-) (HIV-1)
# [21] = molecular target: HIV-1 envelope (Env) of pseudovirus WITO4160.33 (HIV-1)
# [22] = molecular target: HIV-1 envelope (Env) of pseudovirus 3103.v3.c10 (HIV-1)
# [23] = molecular target: HIV-1 envelope (Env) of pseudovirus R3265.c06 (HIV-1)
# [24] = molecular target: HIV-1 envelope (Env) of pseudovirus 3415.v1.c1 (HIV-1)
# [25] = molecular target: HIV-1 envelope (Env) of pseudovirus 263-8 (HIV-1)
# [26] = molecular target: HIV-1 envelope (Env) of pseudovirus CNE53 (HIV-1)
# [27] = molecular target: HIV-1 envelope (Env) of pseudovirus ZM109F.PB4 (HIV-1)
# [28] = molecular target: HIV-1 envelope (Env) of pseudovirus ZM249M.PL1 (HIV-1)
# [29] = molecular target: HIV-1 envelope (Env) of pseudovirus X1193_c1 (HIV-1)
# [30] = molecular target: HIV-1 envelope (Env) of pseudovirus BJOX015000.11.5 (HIV-1)
# [31] = molecular target: HIV-1 envelope (Env) of pseudovirus Ce704809221_1B3 (HIV-1)
# [32] = molecular target: HIV-1 envelope (Env) of pseudovirus Q23.17 (HIV-1)
# [33] = molecular target: HIV-1 envelope (Env) of pseudovirus BJOX010000.06.2 (HIV-1)
# [34] = molecular target: HIV-1 envelope (Env) of pseudovirus TRO.11 (HIV-1)
# JR-CSF (HIV-1) = JR-CSF (HIV-1) (UniProt P20871)
# [35] = molecular target: BG505 (T332N) N386A (HIV-1)
# JR-CSF R327A (HIV-1) = JR-CSF R327A (HIV-1) (UniProt P20871)
# BG505 (T332N) (HIV-1) = molecular target: BG505 (T332N) (HIV-1)
substance,measurement,setting,value
BG18 IgG (354BG18) (antibody),IC50 in TZM-bl assay,[1],> 30 µg/mL
same,IC80 in TZM-bl assay,[1],> 30 µg/mL
BG1 (antibody),IC50 in TZM-bl assay,[2],> 30 µg/mL
same,IC80 in TZM-bl assay,[2],> 30 µg/mL
same,IC50 in TZM-bl assay,[3],> 30 µg/mL
same,IC80 in TZM-bl assay,[3],> 30 µg/mL
same,IC50 in TZM-bl assay,[4],> 30 µg/mL
same,IC80 in TZM-bl assay,[4],> 30 µg/mL
same,IC50 in TZM-bl assay,[5],> 30 µg/mL
same,IC80 in TZM-bl assay,[5],> 30 µg/mL
same,IC50 in TZM-bl assay,[6],> 30 µg/mL
same,IC80 in TZM-bl assay,[6],> 30 µg/mL
same,IC50 in TZM-bl assay,[7],1.27 µg/mL
same,IC80 in TZM-bl assay,[7],4.38 µg/mL
same,IC50 in TZM-bl assay,[8],> 30 µg/mL
same,IC80 in TZM-bl assay,[8],> 30 µg/mL
same,IC50 in TZM-bl assay,[9],0.351 µg/mL
same,IC80 in TZM-bl assay,[9],1.28 µg/mL
same,IC50 in TZM-bl assay,[10],> 30 µg/mL
same,IC80 in TZM-bl assay,[10],> 30 µg/mL
same,IC50 in TZM-bl assay,[11],> 30 µg/mL
same,IC80 in TZM-bl assay,[11],> 30 µg/mL
same,IC50 in TZM-bl assay,[12],0.012 µg/mL
same,IC80 in TZM-bl assay,[12],0.043 µg/mL
same,IC50 in TZM-bl assay,[13],> 30 µg/mL
same,IC80 in TZM-bl assay,[13],> 30 µg/mL
same,IC50 in TZM-bl assay,[14],> 30 µg/mL
same,IC80 in TZM-bl assay,[14],> 30 µg/mL
same,IC50 in TZM-bl assay,[15],> 30 µg/mL
same,IC80 in TZM-bl assay,[15],> 30 µg/mL
same,IC50 in TZM-bl assay,[16],> 30 µg/mL
same,IC80 in TZM-bl assay,[16],> 30 µg/mL
same,IC50 in TZM-bl assay,[17],> 30 µg/mL
same,IC80 in TZM-bl assay,[17],> 30 µg/mL
same,IC50 in TZM-bl assay,[18],> 30 µg/mL
same,IC80 in TZM-bl assay,[18],> 30 µg/mL
same,IC50 in TZM-bl assay,[19],1.27 µg/mL
same,IC80 in TZM-bl assay,[19],10.9 µg/mL
same,IC50 in TZM-bl assay,[20],1.28 µg/mL
same,IC80 in TZM-bl assay,[20],7.25 µg/mL
same,IC50 in TZM-bl assay,[21],0.002 µg/mL
same,IC80 in TZM-bl assay,[21],0.014 µg/mL
same,IC50 in TZM-bl assay,[22],> 30 µg/mL
same,IC80 in TZM-bl assay,[22],> 30 µg/mL
same,IC50 in TZM-bl assay,[23],0.611 µg/mL
same,IC80 in TZM-bl assay,[23],3.44 µg/mL
same,IC50 in TZM-bl assay,[24],14.4 µg/mL
same,IC80 in TZM-bl assay,[24],> 30 µg/mL
same,IC50 in TZM-bl assay,[25],> 30 µg/mL
same,IC80 in TZM-bl assay,[25],> 30 µg/mL
same,IC50 in TZM-bl assay,[26],1.32 µg/mL
same,IC80 in TZM-bl assay,[26],7.47 µg/mL
same,IC50 in TZM-bl assay,[27],> 30 µg/mL
same,IC80 in TZM-bl assay,[27],> 30 µg/mL
same,IC50 in TZM-bl assay,[28],1.22 µg/mL
same,IC80 in TZM-bl assay,[28],6.79 µg/mL
same,IC50 in TZM-bl assay,[29],0.138 µg/mL
same,IC80 in TZM-bl assay,[29],0.463 µg/mL
same,IC50 in TZM-bl assay,[30],> 30 µg/mL
same,IC80 in TZM-bl assay,[30],> 30 µg/mL
same,IC50 in TZM-bl assay,[31],3.25 µg/mL
same,IC80 in TZM-bl assay,[31],18.5 µg/mL
same,IC50 in TZM-bl assay,[32],0.008 µg/mL
same,IC80 in TZM-bl assay,[32],0.016 µg/mL
same,IC50 in TZM-bl assay,[33],> 30 µg/mL
same,IC80 in TZM-bl assay,[33],> 30 µg/mL
same,IC50 in TZM-bl assay,[34],> 30 µg/mL
same,IC80 in TZM-bl assay,[34],> 30 µg/mL
354BG8 (antibody),IC50 in TZM-bl assay,JR-CSF (HIV-1),0.009 µg/mL
same,IC50 in TZM-bl assay,[35],0.004 µg/mL
same,IC50 in TZM-bl assay,JR-CSF R327A (HIV-1),0.005 µg/mL
same,IC50 in TZM-bl assay,BG505 (T332N) (HIV-1),0.007 µg/mL
